Data on 1 molecule can be found in publication PMC5722641 (Developmental Cell, 2017).

For the assay, the target named is purified Drosophila E2F1 (in vitro binding assay) (Drosophila, UniProt Q27368 1-805). The assay can be described thus: in vitro binding assay.
Chain of purified Drosophila E2F1 (in vitro binding assay) (Q27368 whole entry): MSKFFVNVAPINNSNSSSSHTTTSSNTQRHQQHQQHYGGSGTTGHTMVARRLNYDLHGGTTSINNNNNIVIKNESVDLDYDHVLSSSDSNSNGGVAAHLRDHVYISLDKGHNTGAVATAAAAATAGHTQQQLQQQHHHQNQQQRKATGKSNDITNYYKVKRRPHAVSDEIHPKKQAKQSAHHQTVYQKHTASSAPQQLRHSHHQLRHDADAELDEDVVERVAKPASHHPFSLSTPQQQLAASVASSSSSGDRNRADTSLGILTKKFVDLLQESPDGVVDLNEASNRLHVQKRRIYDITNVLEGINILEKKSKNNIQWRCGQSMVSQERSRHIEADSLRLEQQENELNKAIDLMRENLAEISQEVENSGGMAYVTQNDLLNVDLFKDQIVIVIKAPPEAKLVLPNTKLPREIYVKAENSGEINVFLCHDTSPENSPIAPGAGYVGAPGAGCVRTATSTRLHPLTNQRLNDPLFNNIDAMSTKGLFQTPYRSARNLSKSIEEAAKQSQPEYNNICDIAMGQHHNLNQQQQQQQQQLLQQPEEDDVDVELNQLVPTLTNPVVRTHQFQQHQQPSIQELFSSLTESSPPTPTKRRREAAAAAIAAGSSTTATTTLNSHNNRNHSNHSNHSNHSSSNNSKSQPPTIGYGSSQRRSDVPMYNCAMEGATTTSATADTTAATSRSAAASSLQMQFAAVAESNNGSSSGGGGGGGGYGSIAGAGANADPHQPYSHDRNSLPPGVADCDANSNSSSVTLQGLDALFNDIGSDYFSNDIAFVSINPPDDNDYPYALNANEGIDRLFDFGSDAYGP

B1: purified Drosophila Sd (in vitro binding assay) (natural protein)
chain: MKNITSSSTCSTGLLQLQNNLSCSELEVAEKTEQQAVGPGTIPSPWTPVNAGPPGALGSADTNGSMVDSKNLDVGDMSDDEKDLSSADAEGVWSPDIEQSFQEALSIYPPCGRRKIILSDEGKMYGRNELIARYIKLRTGKTRTRKQVSSHIQVLARRKLREIQAKIKVQFWQPGLQPSTSQDFYDYSIKPFPQPPYPAGKTSTAVSGDETGIPPSQLPWEGRAIATHKFRLLEFTAFMEIQRDEIYHRHLFVQLGGKPSFSDPLLETVDIRQIFDKFPEKSGGLKDLYEKGPQNAFYLVKCWADLNTDLTTGSETGDFYGVTSQYESNENVVLVCSTIVCSFGKQVVEKVESEYSRLENNRYVYRIQRSPMCEYMINFIQKLKNLPERYMMNSVLENFTILQVMRARETQETLLCIAYVFEVAAQNSGTTHHIYRLIKE
Consider B1, for which the binding result was “binds”.
